According to patent publication US20130231277A1 (NEW YORK UNIVERSITY, published 2013):
Blank lines part the entries; values can stand above or below the binder they belong to.

Columns and labels:
[1] = target: T1, ectodomain of murine βKlotho (F53 to L995 of SEQ ID NO: 218) with a C-terminal FLAG tag (murine, UniProt Q99N32 53-995); test: SPR; βKlotho ectodomain immobilized, FGFR ligand-binding domain as analyte (FIG. 3B)
T1 construct: Expressed in HEK293 cells and purified from culture media; also called βKlotho ectodomain; not shown: C-terminal FLAG tag
T1 sequence: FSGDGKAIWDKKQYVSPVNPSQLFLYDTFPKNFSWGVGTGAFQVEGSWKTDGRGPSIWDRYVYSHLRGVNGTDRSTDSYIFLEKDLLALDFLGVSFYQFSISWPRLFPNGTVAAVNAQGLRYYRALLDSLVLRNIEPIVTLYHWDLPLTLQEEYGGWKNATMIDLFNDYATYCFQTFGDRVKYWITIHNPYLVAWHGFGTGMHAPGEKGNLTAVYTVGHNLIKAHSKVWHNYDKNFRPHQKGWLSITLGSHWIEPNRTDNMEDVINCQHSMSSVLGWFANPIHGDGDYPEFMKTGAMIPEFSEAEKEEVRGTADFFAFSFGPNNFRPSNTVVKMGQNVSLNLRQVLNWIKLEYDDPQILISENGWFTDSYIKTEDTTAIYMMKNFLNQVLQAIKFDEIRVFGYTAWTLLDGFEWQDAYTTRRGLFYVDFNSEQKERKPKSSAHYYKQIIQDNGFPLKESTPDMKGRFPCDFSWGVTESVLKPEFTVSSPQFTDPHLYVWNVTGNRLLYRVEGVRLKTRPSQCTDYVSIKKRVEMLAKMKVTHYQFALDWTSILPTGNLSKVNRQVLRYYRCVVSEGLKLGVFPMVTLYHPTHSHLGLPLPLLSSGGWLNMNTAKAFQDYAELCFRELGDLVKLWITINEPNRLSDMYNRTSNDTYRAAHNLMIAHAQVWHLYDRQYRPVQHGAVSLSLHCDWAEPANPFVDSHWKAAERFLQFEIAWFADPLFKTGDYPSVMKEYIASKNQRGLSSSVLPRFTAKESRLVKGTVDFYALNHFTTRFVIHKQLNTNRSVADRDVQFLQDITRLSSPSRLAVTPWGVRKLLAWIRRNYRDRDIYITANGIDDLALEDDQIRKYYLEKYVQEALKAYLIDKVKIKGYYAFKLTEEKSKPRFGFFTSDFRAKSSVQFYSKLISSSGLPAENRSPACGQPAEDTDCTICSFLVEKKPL
Description: FIGS. 3A-3G show the FGFR binding specificity profile of βKlotho. […] Where binding was observed, the dissociation constant (KD) was calculated from the saturation binding curve. The data shown in FIGS. 3A-G are representative of two to five independent experiments.
(§1) SPR experiments were performed on a Biacore 2000 instrument (Biacore AB), and all the protein-protein and protein-peptide interactions were studied at 25° C. in HBS-EP buffer (10 mM HEPES-NaOH, pH 7.4, 150 mM NaCl, 3 mM EDTA, 0.005% (v/v) polysorbate 20). Proteins were immobilized by amine coupling on flow channels of research grade CM5 chips (Biacore AB). Proteins were injected over a CM5 chip at a flow rate of 50 μl min⁻¹, and at the end of each protein injection (180 s), HBS-EP buffer (50 μl min⁻¹) was flowed over the chip to monitor dissociation for 180 s. In experiments where βKlotho binding to FGFR was analyzed, the chip surface was then regenerated by injecting 50 μl of 2.0 M NaCl in 10 mM sodium/potassium phosphate, pH 6.5. In experiments where α/βKlotho binding to FGF19/21/23 or binding of the FGFR1c-βKlotho complex to FGF21 was studied, 2.0 M NaCl in 10 mM sodium acetate, pH 4.5 was used for chip regeneration. To control for nonspecific binding in experiments where the ectodomain of αKlotho or βKlotho was immobilized on the chip, β-glucuronidase was coupled to the control flow channel of the chip (˜43-68 fmol/mm²).

[2] = target: T1, ectodomain of murine βKlotho (F53 to …); test: SPR; FGF23 immobilized, increasing concentrations of βKlotho ectodomain passed over the chip (FIG. 4C)
Text: FGF19 was immobilized on a biosensor chip, and increasing concentrations of βKlotho ectodomain were passed over the chip. […] FGF21 was immobilized on a biosensor chip, and increasing concentrations of βKlotho ectodomain were passed over the chip. Note that for any given concentration of βKlotho, the binding response is greater on the FGF19 chip surface than on the FGF21 chip surface. Also note that the FGF19-βKlotho complex dissociates more slowly than the FGF21-βKlotho complex (compare the dissociation phases of the sensorgrams shown in (A) and (B)). […] FGF23 was immobilized on a biosensor chip, and increasing concentrations of βKlotho ectodomain were passed over the chip. […] FGF19 was immobilized on a biosensor chip, and increasing concentrations of αKlotho ectodomain were passed over the chip. […] FGF21 was immobilized on a biosensor chip, and increasing concentrations of αKlotho ectodomain were passed over the chip. […]
SPR experiments were performed on a Biacore 2000 instrument (Biacore AB), and all the protein-protein and protein-peptide interactions were studied at 25° C. in HBS-EP buffer (10 mM HEPES-NaOH, pH 7.4, 150 mM NaCl, 3 mM EDTA, 0.005% (v/v) polysorbate 20). […] In experiments where βKlotho binding to FGFR was analyzed, the chip surface was then regenerated by injecting 50 μl of 2.0 M NaCl in 10 mM sodium/potassium phosphate, pH 6.5.

[3] = target: T2, 1:1 binary complex of FGFR1c ligand-binding domain and βKlotho ectodomain (human; murine, UniProt P11362 142-365; Q99N32 53-995); test: SPR competition; FGF21 immobilized, FGFR1c-βKlotho complex mixed with an equimolar amount of the chimera (FIG. 15F)
T2 construct: also called FGFR1c-βKlotho complex; FGFR1c-βKlotho; not shown: C-terminal FLAG tag
T2 sequence 1: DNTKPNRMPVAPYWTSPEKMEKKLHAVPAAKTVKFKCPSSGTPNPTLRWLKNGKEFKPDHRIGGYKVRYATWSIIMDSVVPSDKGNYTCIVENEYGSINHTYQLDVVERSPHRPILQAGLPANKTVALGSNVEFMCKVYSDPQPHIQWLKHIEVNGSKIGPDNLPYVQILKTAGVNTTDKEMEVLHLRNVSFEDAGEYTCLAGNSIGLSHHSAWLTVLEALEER
T2 sequence 2: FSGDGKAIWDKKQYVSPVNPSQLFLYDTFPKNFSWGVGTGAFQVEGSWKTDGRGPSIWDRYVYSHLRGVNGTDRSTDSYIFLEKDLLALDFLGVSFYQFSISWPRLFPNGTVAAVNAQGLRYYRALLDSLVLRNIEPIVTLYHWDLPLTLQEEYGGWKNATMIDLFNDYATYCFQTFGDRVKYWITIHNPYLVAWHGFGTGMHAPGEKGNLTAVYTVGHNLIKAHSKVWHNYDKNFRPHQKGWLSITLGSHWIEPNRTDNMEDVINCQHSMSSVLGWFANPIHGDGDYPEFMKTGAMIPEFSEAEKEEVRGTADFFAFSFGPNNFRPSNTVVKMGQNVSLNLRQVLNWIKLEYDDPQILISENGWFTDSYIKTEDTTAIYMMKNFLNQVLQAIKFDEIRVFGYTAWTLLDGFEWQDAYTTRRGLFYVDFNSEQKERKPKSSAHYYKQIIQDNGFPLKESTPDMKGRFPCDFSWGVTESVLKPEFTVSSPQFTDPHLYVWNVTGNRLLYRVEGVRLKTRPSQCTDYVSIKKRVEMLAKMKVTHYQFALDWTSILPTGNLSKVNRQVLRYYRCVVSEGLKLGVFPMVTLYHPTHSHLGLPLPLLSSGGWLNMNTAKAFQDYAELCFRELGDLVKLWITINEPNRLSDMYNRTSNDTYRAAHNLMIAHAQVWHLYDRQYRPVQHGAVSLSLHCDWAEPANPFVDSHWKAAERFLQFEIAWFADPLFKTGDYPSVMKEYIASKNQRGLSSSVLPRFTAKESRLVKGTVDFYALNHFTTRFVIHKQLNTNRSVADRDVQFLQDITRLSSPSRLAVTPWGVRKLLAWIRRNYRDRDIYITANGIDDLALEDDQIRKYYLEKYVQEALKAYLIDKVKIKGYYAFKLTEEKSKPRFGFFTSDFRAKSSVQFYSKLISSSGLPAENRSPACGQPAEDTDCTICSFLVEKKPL
Description: To examine whether mutants of FGF21 or chimeras composed of a N-terminal portion of FGF21 and a C-terminal portion of FGF19 can compete with wild-type ligand for binding to the FGFR1c-βKlotho complex, FGF21 was immobilized on a chip (˜30 fmol/mm² of flow channel). Increasing concentrations of FGF21 mutant or chimera (0-60 nM) were mixed with a fixed concentration of 1:1 complex of FGFR1c ligand-binding domain and βKlotho ectodomain (10 nM), and the mixtures were passed over the chip. As a control, competition of FGF21 in solution with immobilized FGF21 for binding to the FGFR1c-βKlotho complex was studied. The results are shown in FIGS. 14A to 14D and 15A to 15F.
A competition binding assay was selected over a direct binding assay because its binding data are not confounded by the effects that the coupling of one binding partner to the chip might have. Specifically, it was examined whether a mutant or chimera can compete with native FGF21 for binding to the FGFR1c-βKlotho complex. […] FGF21 was immobilized on a biosensor chip, and mixtures of a fixed concentration of FGFR1c-βKlotho complex with increasing concentrations of either FGF21 mutant or FGF21/FGF19 chimera were passed over the chip. As a control, competition of FGF21 in solution with immobilized FGF21 for binding to the FGFR1c-βKlotho complex was studied.

[4] = target: T1, ectodomain of murine βKlotho (F53 to …); test: SPR competition; FGF21 immobilized, fixed βKlotho ectodomain mixed with increasing chimera (FIGS. 7B, 7C)
Description: Increasing concentrations of FGF21 were mixed with a fixed concentration of βKlotho ectodomain, and the mixtures were passed over a FGF21 chip. […] Increasing concentrations of FGF21²⁹⁻¹⁹⁰/FGF19¹⁹⁷⁻²¹⁶ chimera were mixed with a fixed concentration of βKlotho ectodomain, and the mixtures were passed over a FGF21 chip. […] The figure was created from the data shown in FIGS. 7A-B, which are representative of two independent experiments.
as §1, with “To control for nonspecific binding in experiments where the ectodomain of αKlotho or βKlotho was immobilized on the chip, β-glucuronidase was coupled to the control flow channel of the chip (˜43-68 fmol/mm²).” left out

[5] = target: T2, 1:1 binary complex of FGFR1c …; test: SPR competition; FGF21 immobilized, FGFR1c-βKlotho complex mixed with the chimera (FIGS. 15E, 15F)
Text: In the experiments shown in FIGS. 15A-15C, increasing concentrations of either an FGF21/FGF19 chimera or wild-type FGF21 were mixed with a fixed concentration of FGFR1c-βKlotho complex, and the mixtures were passed over a FGF21 chip. […] The data shown in FIGS. 15A-15C are representative of two to three independent experiments. Included in FIGS. 15E-15F are SPR sensorgrams obtained from injecting mixtures of the FGF21²⁹⁻¹⁹⁰/FGF19¹⁹⁷⁻²¹⁶ chimera with the FGFR1c-βKlotho complex over a FGF21 chip.
SPR experiments were performed on a Biacore 2000 instrument (Biacore AB), and all the protein-protein and protein-peptide interactions were studied at 25° C. in HBS-EP buffer (10 mM HEPES-NaOH, pH 7.4, 150 mM NaCl, 3 mM EDTA, 0.005% (v/v) polysorbate 20). Proteins were immobilized by amine coupling on flow channels of research grade CM5 chips (Biacore AB). Proteins were injected over a CM5 chip at a flow rate of 50 μl min⁻¹, and at the end of each protein injection (180 s), HBS-EP buffer (50 μl min⁻¹) was flowed over the chip to monitor dissociation for 180 s.

binding result [1]: binds
B1: ligand-binding domain of human FGFR2c (N149 to E368 of SEQ ID NO: 226) (receptor)
chain: NNKRAPYWTNTEKMEKRLHAVPAANTVKFRCPAGGNPMPTMRWLKNGKEFKQEHRIGGYKVRNQHWSLIMESVVPSDKGNYTCVVENEYGSINHTYHLDVVERSPHRPILQAGLPANASTVVGGDVEFVCKVYSDAQPHIQWIKHVEKNGSKYGPDGLPYLKVLKAAGVNTTDKEIEVLYIRNVTFEDAGEYTCLAGNSIGISFHSAWLTVLPAPGREKE

binding result [2]: no binding
B2: human FGF23, secreted bioactive form (Y25 to I251 of SEQ ID NO: 223) with arginines 176 and 179 replaced with glutamine (ligand)
chain: YPNASPLLGSSWGGLIHLYTATARNSYHLQIHKNGHVDGAPHQTIYSALMIRSEDAGFVVITGVMSRRYLCMDFRGNIFGSHYFDPENCRFQHQTLENGYDVYHSPQYHFLVSLGRAKRAFLPGMNPPPYSQFLSRRNEIPLIHFNTPIPRQHTQSAEDDSERDPLNVLKPRARMTPAPASCSQELPSAEDNSPMASDPLGVVRGGRVNTHAGGTGPEGCRPFAKFI
notes: The cleavage site was mutated to minimize proteolysis; Used as specificity control on the SPR chip

B3: FGF21^29-197/FGF19^204-216 chimera (H29 to V197 of human FGF21 and T204 to K216 of human FGF19; SEQ ID NO: 205) (ligand)
chain: HPIPDSSPLLQFGGQVRQRYLYTDDAQQTEAHLEIREDGTVGGAADQSPESLLQLKALKPGVIQILGVKTSRFLCQRPDGALYGSLHFDPEACSFRELLLEDGYNVYQSEAHGLPLHLPGNKSPHRDPAPRGPARFLPLPGLPPALPEPPGILAPQPPDVGSSDPLSMVTGLEAVRSPSFEK
notes: Chimera of human FGF21 and human FGF19, purified from E. coli inclusion bodies; also called FGF21^C-tail variant 19-41; printed once as FGF21^29-97/FGF19^204-216
percent inhibition of FGFR1c-βKlotho binding to immobilized FGF21 at an equimolar ratio of chimera to complex [3]: ≤ 75%

binding result [4]: binds | binding result [5]: binds
B4: FGF21^29-190/FGF19^197-216 chimera (H29 to S190 of human FGF21 and M197 to K216 of human FGF19; SEQ ID NO: 206) (ligand)
chain: HPIPDSSPLLQFGGQVRQRYLYTDDAQQTEAHLEIREDGTVGGAADQSPESLLQLKALKPGVIQILGVKTSRFLCQRPDGALYGSLHFDPEACSFRELLLEDGYNVYQSEAHGLPLHLPGNKSPHRDPAPRGPARFLPLPGLPPALPEPPGILAPQPPDVGSMDPFGLVTGLEAVRSPSFEK
notes: Chimera of human FGF21 and human FGF19, purified from E. coli inclusion bodies; also called FGF21^C-tail variant 19-45
